By Km is commonly meant the concentration of substrate that gives half-maximal velocity.

Substrate in data set [1]: CC(C)=CCC/C(C)=C/CC/C(C)=C/COP(=O)(O)O[C@@H]1O[C@H](CO)[C@@H](O)[C@H]1O
Kind of data set: (§1) Substrate activity at recombinant Mycobacterium tuberculosis DprE1 extracted from Escherichia coli BL21(DE3) assessed as Km incubated for 60 mins by resazurin dye based fluorescence plate reader analysis. On the technique in general: The colour change of resazurin is a common sign of viable cells or microbes.

Substrate in data set [2]: CC(C)=CCC/C(C)=C/CC/C(C)=C/CC/C(C)=C/COP(=O)(O)OC1O[C@H](CO)[C@@H](O)[C@H]1O
Described as §1.

B1: Decaprenylphosphoryl-beta-D-ribose oxidase (Mycobacterium tuberculosis (strain ATCC 25618 / H37Rv)), P9WJF1 (protein)
chain: MLSVGATTTATRLTGWGRTAPSVANVLRTPDAEMIVKAVARVAESGGGRGAIARGLGRSYGDNAQNGGGLVIDMTPLNTIHSIDADTKLVDIDAGVNLDQLMKAALPFGLWVPVLPGTRQVTVGGAIACDIHGKNHHSAGSFGNHVRSMDLLTADGEIRHLTPTGEDAELFWATVGGNGLTGIIMRATIEMTPTSTAYFIADGDVTASLDETIALHSDGSEARYTYSSAWFDAISAPPKLGRAAVSRGRLATVEQLPAKLRSEPLKFDAPQLLTLPDVFPNGLANKYTFGPIGELWYRKSGTYRGKVQNLTQFYHPLDMFGEWNRAYGPAGFLQYQFVIPTEAVDEFKKIIGVIQASGHYSFLNVFKLFGPRNQAPLSFPIPGWNICVDFPIKDGLGKFVSELDRRVLEFGGRLYTAKDSRTTAETFHAMYPRVDEWISVRRKVDPLRVFASDMARRLELL
Turning to B1, the Km in data set [1] stood at 740 µM; in data set [2], 33 µM.

For the origin of these results see ChEMBL document CHEMBL6074635, “Replacement of the essential nitro group by electrophilic warheads towards nitro-free antimycobacterial benzothiazinones” (Eur J Med Chem, 2024).
